Reference: article PMC10786891, “Massively parallel profiling of RNA-targeting CRISPR-Cas13d”

B1: target 3 insA 3' of 6 (mixed)
RNA 1: CACCCGUGCAAAAUUGCAGGGGUCUAAAACGACCUGAAUAUUUCAGAUCAAA
RNA 2: GGGAAUGGAUCCACAUCUACGAAUUCGUUUUUGAUCUGAAAUAUUCAAGGUCUGCAGAUCGGAAGAGCACACGU
B2: target 3 insU 3' of 4 (mixed)
RNA 1: CACCCGUGCAAAAUUGCAGGGGUCUAAAACGACCUGAAUAUUUCAGAUCAAA
RNA 2: GGGAAUGGAUCCACAUCUACGAAUUCGUUUUUGAUCUGAAAUAUUCAGUGUCUGCAGAUCGGAAGAGCACACGU
B3: target 3 insA 3' of 6,insG 3' of 5 (mixed)
RNA 1: CACCCGUGCAAAAUUGCAGGGGUCUAAAACGACCUGAAUAUUUCAGAUCAAA
RNA 2: GGGAAUGGAUCCACAUCUACGAAUUCGUUUUUGAUCUGAAAUAUUCAAGGGUCUGCAGAUCGGAAGAGCACACGU
B4: target 3 insG 3' of 5,insG 3' of 5 (mixed)
RNA 1: CACCCGUGCAAAAUUGCAGGGGUCUAAAACGACCUGAAUAUUUCAGAUCAAA
RNA 2: GGGAAUGGAUCCACAUCUACGAAUUCGUUUUUGAUCUGAAAUAUUCAGGGGUCUGCAGAUCGGAAGAGCACACGU
B5: target 3 C6A,A18G (mixed)
RNA 1: CACCCGUGCAAAAUUGCAGGGGUCUAAAACGACCUGAAUAUUUCAGAUCAAA
RNA 2: GGGAAUGGAUCCACAUCUACGAAUUCGUUUUUGGUCUGAAAUAUUAAGGUCUGCAGAUCGGAAGAGCACACGU
B6: target 3 insG 3' of 8,insA 3' of 6 (mixed)
RNA 1: CACCCGUGCAAAAUUGCAGGGGUCUAAAACGACCUGAAUAUUUCAGAUCAAA
RNA 2: GGGAAUGGAUCCACAUCUACGAAUUCGUUUUUGAUCUGAAAUAUGUCAAGGUCUGCAGAUCGGAAGAGCACACGU
B7: target 3 insC 3' of 11,insC 3' of 5 (mixed)
RNA 1: CACCCGUGCAAAAUUGCAGGGGUCUAAAACGACCUGAAUAUUUCAGAUCAAA
RNA 2: GGGAAUGGAUCCACAUCUACGAAUUCGUUUUUGAUCUGAAACUAUUCACGGUCUGCAGAUCGGAAGAGCACACGU
B8: target 3 U7A,U8C (mixed)
RNA 1: CACCCGUGCAAAAUUGCAGGGGUCUAAAACGACCUGAAUAUUUCAGAUCAAA
RNA 2: GGGAAUGGAUCCACAUCUACGAAUUCGUUUUUGAUCUGAAAUACACAGGUCUGCAGAUCGGAAGAGCACACGU
B9: target 1 complement block 4-13 (mixed)
RNA 1: CACCCGUGCAAAAAUGCAGGGGUCUAAAACUGAGCGGAUAACCUCUCUAUGG
RNA 2: GGGAAUGGAUCCACAUCUACGAAUUCGUACCAUAGAGACCAAUAGGCGUCACCGAGAUCGGAAGAGCACACGU
B10: target 3 insG 3' of 7,insA 3' of 4 (mixed)
RNA 1: CACCCGUGCAAAAUUGCAGGGGUCUAAAACGACCUGAAUAUUUCAGAUCAAA
RNA 2: GGGAAUGGAUCCACAUCUACGAAUUCGUUUUUGAUCUGAAAUAUUGCAGAGUCUGCAGAUCGGAAGAGCACACGU
B11: target 3 insA 3' of 8,insU 3' of 6 (mixed)
RNA 1: CACCCGUGCAAAAUUGCAGGGGUCUAAAACGACCUGAAUAUUUCAGAUCAAA
RNA 2: GGGAAUGGAUCCACAUCUACGAAUUCGUUUUUGAUCUGAAAUAUAUCUAGGUCUGCAGAUCGGAAGAGCACACGU
B12: target 3 U2G,C16U (mixed)
RNA 1: CACCCGUGCAAAAUUGCAGGGGUCUAAAACGACCUGAAUAUUUCAGAUCAAA
RNA 2: GGGAAUGGAUCCACAUCUACGAAUUCGUUUUUGAUUUGAAAUAUUCAGGGCUGCAGAUCGGAAGAGCACACGU
B13: target 3 G3U,C6G (mixed)
RNA 1: CACCCGUGCAAAAUUGCAGGGGUCUAAAACGACCUGAAUAUUUCAGAUCAAA
RNA 2: GGGAAUGGAUCCACAUCUACGAAUUCGUUUUUGAUCUGAAAUAUUGAGUUCUGCAGAUCGGAAGAGCACACGU
B14: target 3 insA 3' of 10,insC 3' of 5 (mixed)
RNA 1: CACCCGUGCAAAAUUGCAGGGGUCUAAAACGACCUGAAUAUUUCAGAUCAAA
RNA 2: GGGAAUGGAUCCACAUCUACGAAUUCGUUUUUGAUCUGAAAUAAUUCACGGUCUGCAGAUCGGAAGAGCACACGU
B15: target 3 insC 3' of 2,insG 3' of 1 (mixed)
RNA 1: CACCCGUGCAAAAUUGCAGGGGUCUAAAACGACCUGAAUAUUUCAGAUCAAA
RNA 2: GGGAAUGGAUCCACAUCUACGAAUUCGUUUUUGAUCUGAAAUAUUCAGGUCCGUGCAGAUCGGAAGAGCACACGU
B16: target 3 insC 3' of 3,insC 3' of 3 (mixed)
RNA 1: CACCCGUGCAAAAUUGCAGGGGUCUAAAACGACCUGAAUAUUUCAGAUCAAA
RNA 2: GGGAAUGGAUCCACAUCUACGAAUUCGUUUUUGAUCUGAAAUAUUCAGGCCUCUGCAGAUCGGAAGAGCACACGU
B17: target 3 A5G,U7A (mixed)
RNA 1: CACCCGUGCAAAAUUGCAGGGGUCUAAAACGACCUGAAUAUUUCAGAUCAAA
RNA 2: GGGAAUGGAUCCACAUCUACGAAUUCGUUUUUGAUCUGAAAUAUACGGGUCUGCAGAUCGGAAGAGCACACGU
B18: target 3 G3C,U8G (mixed)
RNA 1: CACCCGUGCAAAAUUGCAGGGGUCUAAAACGACCUGAAUAUUUCAGAUCAAA
RNA 2: GGGAAUGGAUCCACAUCUACGAAUUCGUUUUUGAUCUGAAAUAGUCAGCUCUGCAGAUCGGAAGAGCACACGU
B19: target 3 insA 3' of 8,insG 3' of 2 (mixed)
RNA 1: CACCCGUGCAAAAUUGCAGGGGUCUAAAACGACCUGAAUAUUUCAGAUCAAA
RNA 2: GGGAAUGGAUCCACAUCUACGAAUUCGUUUUUGAUCUGAAAUAUAUCAGGUGCUGCAGAUCGGAAGAGCACACGU
B20: target 1 insU 3' of 12,insG 3' of 3 (mixed)
RNA 1: CACCCGUGCAAAAAUGCAGGGGUCUAAAACUGAGCGGAUAACCUCUCUAUGG
RNA 2: GGGAAUGGAUCCACAUCUACGAAUUCGUACCAUAGAGAGGUUUAUCCGCUGCACCGAGAUCGGAAGAGCACACGU
B21: target 3 insC 3' of 4 (mixed)
RNA 1: CACCCGUGCAAAAUUGCAGGGGUCUAAAACGACCUGAAUAUUUCAGAUCAAA
RNA 2: GGGAAUGGAUCCACAUCUACGAAUUCGUUUUUGAUCUGAAAUAUUCAGCGUCUGCAGAUCGGAAGAGCACACGU
B22: target 3 G4A,A12U (mixed)
RNA 1: CACCCGUGCAAAAUUGCAGGGGUCUAAAACGACCUGAAUAUUUCAGAUCAAA
RNA 2: GGGAAUGGAUCCACAUCUACGAAUUCGUUUUUGAUCUGAUAUAUUCAAGUCUGCAGAUCGGAAGAGCACACGU
B23: target 3 insA 3' of 22,insA 3' of 22 (mixed)
RNA 1: CACCCGUGCAAAAUUGCAGGGGUCUAAAACGACCUGAAUAUUUCAGAUCAAA
RNA 2: GGGAAUGGAUCCACAUCUACGAAUUCGUUUAAUUGAUCUGAAAUAUUCAGGUCUGCAGAUCGGAAGAGCACACGU
B24: target 3 insU 3' of 22,insA 3' of 7 (mixed)
RNA 1: CACCCGUGCAAAAUUGCAGGGGUCUAAAACGACCUGAAUAUUUCAGAUCAAA
RNA 2: GGGAAUGGAUCCACAUCUACGAAUUCGUUUUUUGAUCUGAAAUAUUACAGGUCUGCAGAUCGGAAGAGCACACGU
B25: target 3 U2G,G3U (mixed)
RNA 1: CACCCGUGCAAAAUUGCAGGGGUCUAAAACGACCUGAAUAUUUCAGAUCAAA
RNA 2: GGGAAUGGAUCCACAUCUACGAAUUCGUUUUUGAUCUGAAAUAUUCAGUGCUGCAGAUCGGAAGAGCACACGU
B26: target 3 insU 3' of 22,insC 3' of 5 (mixed)
RNA 1: CACCCGUGCAAAAUUGCAGGGGUCUAAAACGACCUGAAUAUUUCAGAUCAAA
RNA 2: GGGAAUGGAUCCACAUCUACGAAUUCGUUUUUUGAUCUGAAAUAUUCACGGUCUGCAGAUCGGAAGAGCACACGU
B27: target 3 U2G,U22G (mixed)
RNA 1: CACCCGUGCAAAAUUGCAGGGGUCUAAAACGACCUGAAUAUUUCAGAUCAAA
RNA 2: GGGAAUGGAUCCACAUCUACGAAUUCGUUGUUGAUCUGAAAUAUUCAGGGCUGCAGAUCGGAAGAGCACACGU
B28: target 3 insA 3' of 10,insU 3' of 4 (mixed)
RNA 1: CACCCGUGCAAAAUUGCAGGGGUCUAAAACGACCUGAAUAUUUCAGAUCAAA
RNA 2: GGGAAUGGAUCCACAUCUACGAAUUCGUUUUUGAUCUGAAAUAAUUCAGUGUCUGCAGAUCGGAAGAGCACACGU

Target: T1, EsCas13d, nuclease-dead (Eubacterium siraeum, UniProt B0MS50, R295A;H300A;R849A;H854A)
T1 sequence: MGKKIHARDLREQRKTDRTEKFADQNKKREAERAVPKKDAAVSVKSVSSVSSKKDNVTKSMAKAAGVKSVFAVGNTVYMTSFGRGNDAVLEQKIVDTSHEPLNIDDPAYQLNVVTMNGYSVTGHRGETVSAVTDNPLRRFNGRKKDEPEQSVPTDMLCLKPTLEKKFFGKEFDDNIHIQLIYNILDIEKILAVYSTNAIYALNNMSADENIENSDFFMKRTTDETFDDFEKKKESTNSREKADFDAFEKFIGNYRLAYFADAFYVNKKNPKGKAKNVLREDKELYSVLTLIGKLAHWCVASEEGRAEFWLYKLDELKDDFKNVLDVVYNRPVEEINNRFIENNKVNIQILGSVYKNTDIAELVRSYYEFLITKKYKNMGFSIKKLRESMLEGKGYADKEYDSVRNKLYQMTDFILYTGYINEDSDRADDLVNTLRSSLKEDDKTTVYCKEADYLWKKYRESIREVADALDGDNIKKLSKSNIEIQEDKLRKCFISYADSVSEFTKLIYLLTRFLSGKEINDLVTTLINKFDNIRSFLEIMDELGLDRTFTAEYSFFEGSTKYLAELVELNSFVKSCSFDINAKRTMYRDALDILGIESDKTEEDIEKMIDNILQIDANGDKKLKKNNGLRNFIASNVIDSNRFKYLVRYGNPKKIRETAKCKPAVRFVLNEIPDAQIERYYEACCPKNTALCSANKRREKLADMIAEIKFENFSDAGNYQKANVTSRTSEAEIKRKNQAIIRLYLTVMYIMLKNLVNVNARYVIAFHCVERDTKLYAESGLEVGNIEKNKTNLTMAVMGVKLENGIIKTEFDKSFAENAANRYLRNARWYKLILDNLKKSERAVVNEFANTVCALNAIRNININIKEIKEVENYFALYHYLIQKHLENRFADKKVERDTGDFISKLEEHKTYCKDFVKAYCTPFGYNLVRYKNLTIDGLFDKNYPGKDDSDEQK
Experiment: crRNA (strand 1, pre-loaded); Mg2+; 40 mM Tris-HCl pH 7.5, 150 mM NaCl, 6 mM MgCl2, 1 mM DTT, 0.1% Tween-20, 0.2 mg/ml BSA; 25 C; 10 min per concentration, then washed
Conditions: tags: His6-TwinStrep-SUMO cleaved; N-terminal SNAP kept (SNAP-Surface 488); label: 3' end held by stalled T7 RNA polymerase

B1 was tested. Which Kd did it give?
Its Kd is 7.8 ± 0.65 nM.

Which Kd does the source give for B2 here?
The Kd was 4.39 ± 0.415 nM.

B3 was tested. Which Kd did it give?
The Kd was 5.51 ± 0.325 nM.

B4 was tested. Which Kd did it give?
Its Kd is 25.3 ± 5.25 nM.

With B5 as the binder, how does the Kd read?
The Kd was 55.5 ± 10.5 nM.

B6 was tested. Which Kd did it give?
Its Kd is 43.5 ± 6 nM.

For B7, which Kd is on record?
Its Kd is 88 ± 25 nM.

Which Kd does the source give for B8 here?
Its Kd is 59.5 ± 7 nM.

For B9, which Kd is on record?
Its Kd is 55 ± 6 nM.

How did the Kd turn out when B10 was run?
The Kd was 88 ± 17.5 nM.

For B11, which Kd is on record?
Its Kd is 34.2 ± 3.35 nM.

For B12, which Kd is on record?
Its Kd is 21.6 ± 2.7 nM.

With B13 as the binder, how does the Kd read?
The Kd was 56.5 ± 11.5 nM.

With B14 as the binder, how does the Kd read?
The Kd was 74.5 ± 11.5 nM.

Which Kd does the source give for B15 here?
Its Kd is 52 ± 12.5 nM.

With B16 as the binder, how does the Kd read?
The Kd was 39 ± 4 nM.

For B17, which Kd is on record?
The Kd was 37 ± 5.5 nM.

B18 was tested. Which Kd did it give?
Its Kd is 88 ± 16.5 nM.

With B19 as the binder, how does the Kd read?
The Kd was 36.5 ± 8.5 nM.

B20 was tested. Which Kd did it give?
Its Kd is 6.3 ± 0.4 nM.

How did the Kd turn out when B21 was run?
Its Kd is 19 ± 2.45 nM.

For B22, which Kd is on record?
Its Kd is 72.5 ± 11 nM.

With B23 as the binder, how does the Kd read?
The Kd was 19.4 ± 2.45 nM.

Which Kd does the source give for B24 here?
Its Kd is 68.5 ± 19 nM.

For B25, which Kd is on record?
Its Kd is 9.2 ± 0.8 nM.

Which Kd does the source give for B26 here?
Its Kd is 24.1 ± 2.9 nM.

Which Kd does the source give for B27 here?
The Kd was 61.5 ± 14.5 nM.

How did the Kd turn out when B28 was run?
The Kd was 59 ± 13 nM.
